Experiments:
E. coli = details: intracellular accumulation in pathway II strains
[1] = In vitro hydrolysis of IPP by purified Nudix hydrolase; assay type: biochemical; details: purified enzyme with IPP; up to 16 hours
Procedure: All metabolites are analyzed by liquid chromatography mass spectrometry (LC-MS; Agilent Technologies 1200 Series HPLC system and Agilent Technologies 6210 time-of-flight mass spectrometer) on a ZIC-HILIC column (150 mm length, 2.1-mm internal diameter, and 3.5-μm particle size). Standard chemicals (IPP and IP) are purchased from Sigma-Aldrich (USA). Metabolites are eluted isocratically with a mobile phase composition of 64% (v/v) acetonitrile containing 50 mM ammonium acetate with a flow rate of 0.15 mL/min. IPP and IP from E. coli extracts or enzyme assay are quantified via […] calibration curves ranging from 781.25 nM to 200 μM.

[2] = In vitro hydrolysis of IP to isopentenol (purified enzyme or cell lysates); assay type: biochemical; details: purified NudB or lysates of cells overexpressing the phosphatase
Procedure: To identify IP-hydrolyzing endogenous phosphatases, single gene knockout mutants of 36 phosphatases, of which substrates are mostly mono-phosphorylated metabolites, are retrieved from the Keio collection (Baba et al., 2006). 1 mL overnight cultures from each mutant are concentrated in 0.5 mL of 50 mM Tris-HCl (pH 8.0) buffer containing 1 mM DTT and ˜50 mg of glass beads (<100 μm, Sigma-Aldrich, USA). Cells are lysed by bead-beating for 2 min at 6.0 M/s (MP biomedicals Fast Prep, USA). After centrifugation of cell lysates at 20,000 g for 10 min, clear supernatant is used for assay reaction containing 0.5 mM isopentenyl monophosphate (IP). An equal volume of ethyl acetate is added to 100 μL of assay reaction after incubating overnight at 30° C., and isopentenol is extracted for 10 min by vigorous mixing.
Coding sequences of agp, aphA, and yqaB are amplified from BW25113 genome by PCR, and they are subsequently cloned to pBbE1a vector (Lee et al., 2011) for over-expression. Expression of these three genes are induced by addition of 0.5 mM IPTG to the cell cultures, and cell lysates of each sample are prepared with three biological replicates as described above for screening of the 36 mutants. 600 μL of assay reactions containing cell lysates, 1 mM DTT are prepared and the reaction is initiated by addition of 0.5 mM IP. […] Quantification of metabolites

Molecule: C[C@@](O)(CCOP(=O)(O)O)CC(=O)O [MVAP, MVA monophosphate]
- toxicity of accumulated metabolite to cells (E. coli): without any significant toxicity

B1: NudB: phosphatase (Nudix hydrolase) from E. coli (protein, UniProt P0AFC0 1-150, looked up)
Dihydroneopterin triphosphate …: MKDKVYKRPVSILVVIYAQDTKRVLMLQRRDDPDFWQSVTGSVEEGETAPQAAMREVKEEVTIDVVAEQLTLIDCQRTVEFEIFSHLRHRYAPGVTRNTESWFCLALPHERQIVFTEHLAYKWLDAPAAAALTKSWSNRQAIEQFVINAA
- IPP hydrolysis product [1]: produces only IP
- hydrolysis of IP to isopentenol [2]: do not show the activity of hydrolyzing IP to Isopentenol
